Source: paper PMC8420761

Biological target: Mycobacterium tuberculosis H37Rv HigA2 antitoxin (Mycobacterium tuberculosis H37Rv) (UniProt O53467)
Assay: not stated; in solution; purified MtHigA2

Substance: Mycobacterium tuberculosis H37Rv HigA2 antitoxin (from UniProt O53467 1-101) (natural protein)
- stoichiometry N: 2
